These results are taken from article PMC2116342 (The Journal of Cell Biology, 1990).

Data set [1] has as its target L-desmin (desmin lacking its carboxy-terminal 27 residues) (chicken). As to the kind of experiment: cross-linking.
The data set “cross-linking” deals with the molecule itself. Briefly: cross-linking.

Broadly, the stoichiometry N is the number of molecules, sites or subunits per partner or assembly. With “L-desmin (desmin lacking its carboxy-terminal 27 residues) (domain or fragment)”, the stoichiometry N in data set [1] came to 4.

B1: desmin (intact chicken gizzard desmin) (natural protein, UniProt P02542 1-464, looked up)
chain: MSQSYSSSQRVSSYRRTFGGGTSPVFPRASFGSRGSGSSVTSRVYQVSRTSAVPTLSTFRTTRVTPLRTYQSAYQGAGELLDFSLADAMNQEFLQTRTNEKVELQELNDRFANYIEKVRFLEQQNALMVAEVNRLRGKEPTRVAEMYEEELRELRRQVDALTGQRARVEVERDNLLDDLQKLKQRLQEEIQLKEEAENNLAAFRADVDAATLARIDLERRIESLQEEIAFLKKVHEEEIRELQAQLQEQHIQVEMDISKPDLTAALRDIRAQYESIAAKNIAEAEEWYKSKVSDLTQAANKNNDALRQAKQEMLEYRHQIQSYTCEIDALKGTNDSLMRQMREMEERFAGEAGGYQDTIARLEEEIRHLKDEMARHLREYQDLLNVKMALDVEIATYRKLLEGEENRISIPMHQTFASALNFRETSPDQRGSEVHTKKTVMIKTIETRDGEVVSEATQQQHEVL
For B1, the “stoichiometry N” value in “cross-linking” was 4.
